Molecular target: IFT140 with C-terminal TEV site and Strep-tag II (IFT140^Strep) (human, UniProt Q96RY7 1-1462)
Experiment: pull-down

Sequence of IFT140 with C-terminal TEV site and Strep-tag II (IFT140^Strep) (Q96RY7 whole entry): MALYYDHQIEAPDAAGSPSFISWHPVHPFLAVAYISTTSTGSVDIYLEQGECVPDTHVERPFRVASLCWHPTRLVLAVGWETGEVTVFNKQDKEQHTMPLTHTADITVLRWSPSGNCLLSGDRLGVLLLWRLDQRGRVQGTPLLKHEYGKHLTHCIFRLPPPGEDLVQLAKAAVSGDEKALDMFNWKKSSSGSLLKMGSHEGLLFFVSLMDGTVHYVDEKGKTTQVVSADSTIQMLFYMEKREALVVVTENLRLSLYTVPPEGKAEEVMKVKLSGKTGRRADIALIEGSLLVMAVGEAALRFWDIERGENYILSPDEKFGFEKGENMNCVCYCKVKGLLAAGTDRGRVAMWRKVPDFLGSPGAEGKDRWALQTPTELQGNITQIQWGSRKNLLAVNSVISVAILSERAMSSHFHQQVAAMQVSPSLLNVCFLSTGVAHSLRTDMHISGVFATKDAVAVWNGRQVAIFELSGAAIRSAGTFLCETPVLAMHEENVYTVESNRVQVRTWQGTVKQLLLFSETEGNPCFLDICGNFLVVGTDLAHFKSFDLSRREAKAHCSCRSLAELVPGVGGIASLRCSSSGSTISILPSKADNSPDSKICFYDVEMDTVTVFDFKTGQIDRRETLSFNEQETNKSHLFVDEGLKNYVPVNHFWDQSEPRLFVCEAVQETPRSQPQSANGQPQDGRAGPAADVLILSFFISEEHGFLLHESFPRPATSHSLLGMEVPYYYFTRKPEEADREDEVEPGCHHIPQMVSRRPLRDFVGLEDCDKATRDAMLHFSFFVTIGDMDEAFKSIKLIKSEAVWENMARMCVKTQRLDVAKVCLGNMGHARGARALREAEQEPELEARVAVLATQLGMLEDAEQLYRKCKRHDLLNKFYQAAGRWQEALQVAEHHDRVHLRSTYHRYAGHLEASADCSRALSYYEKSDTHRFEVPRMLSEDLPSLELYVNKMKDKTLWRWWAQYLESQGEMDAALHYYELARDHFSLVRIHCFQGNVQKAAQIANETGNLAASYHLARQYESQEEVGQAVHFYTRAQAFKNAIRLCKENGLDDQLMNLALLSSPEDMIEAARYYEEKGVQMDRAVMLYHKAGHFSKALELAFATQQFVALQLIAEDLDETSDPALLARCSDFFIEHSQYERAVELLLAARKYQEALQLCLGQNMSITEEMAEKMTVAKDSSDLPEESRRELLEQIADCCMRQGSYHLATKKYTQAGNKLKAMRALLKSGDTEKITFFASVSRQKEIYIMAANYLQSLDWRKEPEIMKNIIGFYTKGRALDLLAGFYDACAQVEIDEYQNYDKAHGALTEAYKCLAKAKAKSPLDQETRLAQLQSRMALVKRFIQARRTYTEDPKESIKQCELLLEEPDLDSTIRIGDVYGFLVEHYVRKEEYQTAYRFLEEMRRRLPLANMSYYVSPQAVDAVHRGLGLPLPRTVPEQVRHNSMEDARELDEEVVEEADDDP

binding result: binds
B1: IFT144 with C-terminal TEV site and FLAG tag (IFT144^FLAG) (natural protein, human, UniProt Q8NEZ3 1-1342, looked up)
chain: MKRIFSLLEKTWLGAPIQFAWQKTSGNYLAVTGADYIVKIFDRHGQKRSEINLPGNCVAMDWDKDGDVLAVIAEKSSCIYLWDANTNKTSQLDNGMRDQMSFLLWSKVGSFLAVGTVKGNLLIYNHQTSRKIPVLGKHTKRITCGCWNAENLLALGGEDKMITVSNQEGDTIRQTQVRSEPSNMQFFLMKMDDRTSAAESMISVVLGKKTLFFLNLNEPDNPADLEFQQDFGNIVCYNWYGDGRIMIGFSCGHFVVISTHTGELGQEIFQARNHKDNLTSIAVSQTLNKVATCGDNCIKIQDLVDLKDMYVILNLDEENKGLGTLSWTDDGQLLALSTQRGSLHVFLTKLPILGDACSTRIAYLTSLLEVTVANPVEGELPITVSVDVEPNFVAVGLYHLAVGMNNRAWFYVLGENAVKKLKDMEYLGTVASICLHSDYAAALFEGKVQLHLIESEILDAQEERETRLFPAVDDKCRILCHALTSDFLIYGTDTGVVQYFYIEDWQFVNDYRHPVSVKKIFPDPNGTRLVFIDEKSDGFVYCPVNDATYEIPDFSPTIKGVLWENWPMDKGVFIAYDDDKVYTYVFHKDTIQGAKVILAGSTKVPFAHKPLLLYNGELTCQTQSGKVNNIYLSTHGFLSNLKDTGPDELRPMLAQNLMLKRFSDAWEMCRILNDEAAWNELARACLHHMEVEFAIRVYRRIGNVGIVMSLEQIKGIEDYNLLAGHLAMFTNDYNLAQDLYLASSCPIAALEMRRDLQHWDSALQLAKHLAPDQIPFISKEYAIQLEFAGDYVNALAHYEKGITGDNKEHDEACLAGVAQMSIRMGDIRRGVNQALKHPSRVLKRDCGAILENMKQFSEAAQLYEKGLYYDKAASVYIRSKNWAKVGDLLPHVSSPKIHLQYAKAKEADGRYKEAVVAYENAKQWQSVIRIYLDHLNNPEKAVNIVRETQSLDGAKMVARFFLQLGDYGSAIQFLVMSKCNNEAFTLAQQHNKMEIYADIIGSEDTTNEDYQSIALYFEGEKRYLQAGKFFLLCGQYSRALKHFLKCPSSEDNVAIEMAIETVGQAKDELLTNQLIDHLLGENDGMPKDAKYLFRLYMALKQYREAAQTAIIIAREEQSAGNYRNAHDVLFSMYAELKSQKIKIPSEMATNLMILHSYILVKIHVKNGDHMKGARMLIRVANNISKFPSHIVPILTSTVIECHRAGLKNSAFSFAAMLMRPEYRSKIDAKYKKKIEGMVRRPDISEIEEATTPCPFCKFLLPECELLCPGCKNSIPYCIATGRHMLKDDWTVCPHCDFPALYSELKIMLNTESTCPMCSERLNAAQLKKISDCTQYLRTEEEL

Reference: article doi:10.1101/2022.08.09.503213 (bioRxiv, 2022)
